These are literature values, as cited in publication PMC5605561.

In the data set the target is B2R (Homo sapiens) (UniProt P30411).
Chain of UniProt P30411 (P30411 whole entry): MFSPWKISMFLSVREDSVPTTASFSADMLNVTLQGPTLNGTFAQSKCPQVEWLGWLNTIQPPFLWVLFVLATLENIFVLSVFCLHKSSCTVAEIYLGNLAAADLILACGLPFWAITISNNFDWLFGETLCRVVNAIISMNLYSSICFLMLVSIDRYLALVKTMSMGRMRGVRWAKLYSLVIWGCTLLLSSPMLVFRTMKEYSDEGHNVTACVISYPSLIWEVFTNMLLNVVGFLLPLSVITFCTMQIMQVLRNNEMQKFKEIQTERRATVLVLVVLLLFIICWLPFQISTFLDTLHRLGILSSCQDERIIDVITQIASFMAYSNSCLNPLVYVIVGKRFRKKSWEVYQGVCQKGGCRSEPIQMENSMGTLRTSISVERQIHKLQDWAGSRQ

The Kd is the constant that tells how readily two partners part at equilibrium. “bradykinin bradykinin (from UniProt P01042)”: the Kd is 10 nM.
